Biological target: transcobalamin saturated with vitamin B12 (holoTC) (human (endogenous in serum)) (UniProt P20062)
Assay: co-IP; serum samples of 6 pregnant women (weeks 15, 25 and 35) exposed to anti-TC coated magnetic beads; sCD320 measured by in-house sandwich ELISA before and after the precipitation

UniProt P20062, sequence (P20062 19-427): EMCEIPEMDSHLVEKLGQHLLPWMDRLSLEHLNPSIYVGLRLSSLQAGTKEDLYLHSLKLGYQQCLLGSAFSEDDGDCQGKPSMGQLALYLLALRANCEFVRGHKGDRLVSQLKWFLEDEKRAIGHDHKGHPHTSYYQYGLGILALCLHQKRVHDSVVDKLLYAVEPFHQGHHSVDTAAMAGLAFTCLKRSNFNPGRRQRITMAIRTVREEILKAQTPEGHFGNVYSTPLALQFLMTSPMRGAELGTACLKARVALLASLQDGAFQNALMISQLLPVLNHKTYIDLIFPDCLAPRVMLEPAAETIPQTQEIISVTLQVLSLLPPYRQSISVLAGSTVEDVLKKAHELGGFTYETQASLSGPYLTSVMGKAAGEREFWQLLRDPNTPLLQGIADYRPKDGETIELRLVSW

soluble CD320 (sCD320), soluble receptor for transcobalamin-vitamin B12 (from UniProt Q9NPF0 36-229)
percent of sCD320 removed by precipitation with antibodies against TC (week 15, median): 36%
percent of sCD320 removed by precipitation with antibodies against TC (week 25, median): 36%
percent of sCD320 removed by precipitation with antibodies against TC (week 35, median): 40%
stoichiometry N: 1
